Reference: the supplement of paper PMC10567573

B1: APBB1IP (parent)
chain: FNYSVGFKDLNESLNALEDQDLDA

Variants of: B1
Assay: protein stability index of a GFP-peptide fusion (GPS, HEK-293T) (PSI 1-6); higher = more stable
Conditions: c terminus: a fixed tail appended
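Note: lentivirally expressed fusions sorted by FACS into six bins by GFP to DsRed ratio, PSI derived from sequencing read proportions per bin multiplied by bin number.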

Variant	protein stability index
FNYSVGFKDLNESLNALEDQALDA [D21A]	3.69
FNYSVGFKDLNESLNALEDQLLDA [D21L]	2.8
FNYSVGFKDLNESLNALEDQCLDA [D21C]	3.57
FNYSVGFKDLNESLNALEDQNLDA [D21N]	4.07
FNYSVGFKDLNESLNALEDQELDA [D21E]	4.25
FNYSVGFKDLNESLNALEDQMLDA [D21M]	3.83
FNYSVGFKDLNESLNALEDQGLDA [D21G]	3.94
FNYSVGFKDLNESLNALEDQFLDA [D21F]	2.34
FNYSVGFKDLNESLNALEDQILDA [D21I]	2.81
FNYSVGFKDLNESLNALEDQHLDA [D21H]	3.33
FNYSVGFKDLNESLNALEDQKLDA [D21K]	4.19
FNYSVGFKDLNESLNALEDDDLDA [Q20D]	4.4
FNYSVGFKDLNESLNALEDKDLDA [Q20K]	4.2
FNYSVGFKDLNESLNALEDWDLDA [Q20W]	3.7
FNYSVGFKDLNESLNALEDLDLDA [Q20L]	3.88
FNYSVGFKDLNESLNALEDYDLDA [Q20Y]	3.85
FNYSVGFKDLNESLNALEDFDLDA [Q20F]	3.57
FNYSVGFKDLNESLNALEDCDLDA [Q20C]	4.02
FNYSVGFKDLNESLNALEDSDLDA [Q20S]	3.97
FNYSVGFKDLNESLNALEDMDLDA [Q20M]	3.7
FNYSVGFKDLNESLNALEDADLDA [Q20A]	4.42
FNYSVGFKDLNESLNALEDNDLDA [Q20N]	4.53
FNYSVGFKDLNESLNALEDEDLDA [Q20E]	4.69
FNYSVGFKDLNESLNALEDRDLDA [Q20R]	3.21

Variant	protein stability index
FNYSVGFKDLNESLNALEDGDLDA [Q20G]	4.57
FNYSVGFKDLNESLNALEDVDLDA [Q20V]	4
FNYSVGFKDLNESLNALEDTDLDA [Q20T]	4.84
FNYSVGFKDLNESLNALEDPDLDA [Q20P]	3.97
FNYSVGFKDLNESLNALEDHDLDA [Q20H]	4.42
FNYSVGFKDLNESLNALEDIDLDA [Q20I]	3.97
FNYSVGFKDLNESLNAGEDQDLDA [L17G]	4.51
FNYSVGFKDLNESLNASEDQDLDA [L17S]	4.78
FNYSVGFKDLNESLNAPEDQDLDA [L17P]	4.65
FNYSVGFKDLNESLNADEDQDLDA [L17D]	5.25
FNYSVGFKDLNESLNAKEDQDLDA [L17K]	4.48
FNYSVGFKDLNESLNAREDQDLDA [L17R]	5.01
FNYSVGFKDLNESLNAWEDQDLDA [L17W]	3.85
FNYSVGFKDLNESLNAMEDQDLDA [L17M]	4.17
FNYSVGFKDLNESLNAEEDQDLDA [L17E]	5.04
FNYSVGFKDLNESLNATEDQDLDA [L17T]	5.18
FNYSVGFKDLNESLNAAEDQDLDA [L17A]	4.63
FNYSVGFKDLNESLNACEDQDLDA [L17C]	4.48
FNYSVGFKDLNESLNAIEDQDLDA [L17I]	4.68
FNYSVGFKDLNESLNAHEDQDLDA [L17H]	4.18
FNYSVGFKDLNESLNAQEDQDLDA [L17Q]	4.88
FNYSVGFKDLNESLNAFEDQDLDA [L17F]	4.43
FNYSVGFKDLNESLNAVEDQDLDA [L17V]	4.68
FNYSVGFKDLNESLNAYEDQDLDA [L17Y]	3.96

Variant	protein stability index
FNYSVGFKDLNESLNANEDQDLDA [L17N]	5.02
FNYSVGFKDLVESLNALEDQDLDA [N11V]	3.45
FNYSVGFKDLTESLNALEDQDLDA [N11T]	4.58
FNYSVGFKDLYESLNALEDQDLDA [N11Y]	3.25
FNYSVGFKDLRESLNALEDQDLDA [N11R]	4.18
FNYSVGFKDLSESLNALEDQDLDA [N11S]	4.21
FNYSVGFKDLWESLNALEDQDLDA [N11W]	2.58
FNYSVGFKDLNESLNALELQDLDA [D19L]	3.53
FNYSVGFKDLNESLNALEPQDLDA [D19P]	3.65
FNYSVGFKDLNESLNALEGQDLDA [D19G]	4.36
FNYSVGFKDLNESLNALETQDLDA [D19T]	3.86
FNYSVGFKDLNESLNALEFQDLDA [D19F]	3
FNYSVGFKDLNESLNALEWQDLDA [D19W]	3.42
FNYSVGFKDLNESLNALEQQDLDA [D19Q]	3.83
FNYSVGFKDLNESLNALEYQDLDA [D19Y]	3.93
FNYSVGFKDLNESLNALEHQDLDA [D19H]	3.7
FNYSVGFKDLNESLNALESQDLDA [D19S]	3.73
FNYSVGFKDLNESLNALEVQDLDA [D19V]	3.56
FNYSVGFKDLNESLNALECQDLDA [D19C]	4.06
FNYSVGFKDLNESLNALERQDLDA [D19R]	3.67
FNYSVGFKDLNESLNALEIQDLDA [D19I]	3.86
FNYSVGFKDLNESLNALEKQDLDA [D19K]	4.5
FNYSVGFKDLNESLNALENQDLDA [D19N]	4.04
FNYSVGFKDLNESLNALEAQDLDA [D19A]	3.97

Variant	protein stability index
FNYSVGFKDLNESLNALEEQDLDA [D19E]	4.53
FNYSVGFKDLNESLNALEMQDLDA [D19M]	3.05
FNYSVGFKDLNESDNALEDQDLDA [L14D]	4.89
FNYSVGFKDLNESFNALEDQDLDA [L14F]	4
FNYSVGFKDLNESPNALEDQDLDA [L14P]	4.76
FNYSVGFKDLNESQNALEDQDLDA [L14Q]	4.88
FNYSVGFKDLNESWNALEDQDLDA [L14W]	4.05
FNYSVGFKDLNESNNALEDQDLDA [L14N]	5.06
FNYSVGFKDLNESKNALEDQDLDA [L14K]	4.48
FNYSVGFKDLNESGNALEDQDLDA [L14G]	4.9
FNYSVGFKDLNESCNALEDQDLDA [L14C]	3.86
FNYSVGFKDLNESRNALEDQDLDA [L14R]	4.57
FNYSVGFKDLNESSNALEDQDLDA [L14S]	4.47
FNYSVGFKDLNESENALEDQDLDA [L14E]	4.51
FNYSVGFKDLNESHNALEDQDLDA [L14H]	5.1
FNYSVGFKDLNESVNALEDQDLDA [L14V]	4.5
FNYSVGFKDLNESINALEDQDLDA [L14I]	4.71
FNYSVGFKDLNESMNALEDQDLDA [L14M]	4.61
FNYSVGFKDLNESTNALEDQDLDA [L14T]	4.98
FNYSVGFKDLNESYNALEDQDLDA [L14Y]	4.49
FNYSVGFKDLNESANALEDQDLDA [L14A]	4.71
FNYSVGFKDLNESLVALEDQDLDA [N15V]	4.7
FNYSVGFKDLNESLFALEDQDLDA [N15F]	3.72
FNYSVGFKDLNESLYALEDQDLDA [N15Y]	3.62

Variant	protein stability index
FNYSVGFKDLNESLSALEDQDLDA [N15S]	4.15
FNYSVGFKDLNESLDALEDQDLDA [N15D]	4.77
FNYSVGFKDLNESLGALEDQDLDA [N15G]	4.78
FNYSVGFKDLNESLPALEDQDLDA [N15P]	5
FNYSVGFKDLNESLLALEDQDLDA [N15L]	4.04
FNYSVGFKDLNESLKALEDQDLDA [N15K]	4.77
FNYSVGFKDLNESLEALEDQDLDA [N15E]	4.14
FNYSVGFKDLNESLAALEDQDLDA [N15A]	4.44
FNYSVGFKDLNESLWALEDQDLDA [N15W]	2.92
FNYSVGFKDLNESLQALEDQDLDA [N15Q]	4.28
FNYSVGFKDLNESLTALEDQDLDA [N15T]	4.78
FNYSVGFKDLNESLMALEDQDLDA [N15M]	4.39
FNYSVGFKDLNESLRALEDQDLDA [N15R]	3.64
FNYSVGFKDLNESLHALEDQDLDA [N15H]	4.08
FNYSVGFKDLNESLCALEDQDLDA [N15C]	4.32
FNYSVGFKDLNESLIALEDQDLDA [N15I]	4.01
FNYSVGFKDLNESLNWLEDQDLDA [A16W]	3.41
FNYSVGFKDLNESLNILEDQDLDA [A16I]	4
FNYSVGFKDLNESLNFLEDQDLDA [A16F]	3.92
FNYSVGFKDLNESLNRLEDQDLDA [A16R]	4.14
FNYSVGFKDLNESLNCLEDQDLDA [A16C]	4.47
FNYSVGFKDLNESLNLLEDQDLDA [A16L]	4.04
FNYSVGFKDLNESLNNLEDQDLDA [A16N]	4.51
FNYSVGFKDLNESLNGLEDQDLDA [A16G]	3.94

Variant	protein stability index
FNYSVGFKDLNESLNYLEDQDLDA [A16Y]	3.93
FNYSVGFKDLNESLNTLEDQDLDA [A16T]	4.57
FNYSVGFKDLNESLNELEDQDLDA [A16E]	5.02
FNYSVGFKDLNESLNSLEDQDLDA [A16S]	4.19
FNYSVGFKDLNESLNPLEDQDLDA [A16P]	4.33
FNYSVGFKDLNESLNKLEDQDLDA [A16K]	4.36
FNYSVGFKDLNESLNHLEDQDLDA [A16H]	4.37
FNYSVGFKDLNESLNVLEDQDLDA [A16V]	3.47
FNYSVGFKDLNESLNMLEDQDLDA [A16M]	4.1
FNYSVGFKDLNESLNQLEDQDLDA [A16Q]	4.52
FNYSVGFKDLNESLNDLEDQDLDA [A16D]	4.6
FNYSVGFKDLNESLNALIDQDLDA [E18I]	2.67
FNYSVGFKDLNESLNALTDQDLDA [E18T]	3.44
FNYSVGFKDLNESLNALADQDLDA [E18A]	3.66
FNYSVGFKDLNESLNALLDQDLDA [E18L]	3.24
FNYSVGFKDLNESLNALSDQDLDA [E18S]	3.71
FNYSVGFKDLNESLNALCDQDLDA [E18C]	3.56
FNYSVGFKDLNESLNALMDQDLDA [E18M]	3.59
FNYSVGFKDLNESLNALYDQDLDA [E18Y]	2.95
FNYSVGFKDLNESLNALPDQDLDA [E18P]	4.51
FNYSVGFKDLNESLNALFDQDLDA [E18F]	2.79
FNYSVGFKDLNESLNALNDQDLDA [E18N]	4.06
FNYSVGFKDLNESLNALGDQDLDA [E18G]	3.96
FNYSVGFKDLNESLNALHDQDLDA [E18H]	3.92

Variant	protein stability index
FNYSVGFKDLNESLNALKDQDLDA [E18K]	3.82
FNYSVGFKDLNESLNALVDQDLDA [E18V]	3.35
FNYSVGFKDLNESLNALRDQDLDA [E18R]	2.87
FNYSVGFKDLNESLNALDDQDLDA [E18D]	4.34
FNYSVGFKDLNESLNALWDQDLDA [E18W]	2.52
FNYSVGFKDLNESLNALQDQDLDA [E18Q]	3.98
FNYSVGFKDLNGSLNALEDQDLDA [E12G]	4.2
FNYSVGFKDLNFSLNALEDQDLDA [E12F]	3.63
FNYSVGFKDLNPSLNALEDQDLDA [E12P]	4.53
FNYSVGFKDLNWSLNALEDQDLDA [E12W]	2.8
FNYSVGFKDLNQSLNALEDQDLDA [E12Q]	4.28
FNYSVGFKDLNHSLNALEDQDLDA [E12H]	3.69
FNYSVGFKDLNDSLNALEDQDLDA [E12D]	4.32
FNYSVGFKDLNTSLNALEDQDLDA [E12T]	4.24
FNYSVGFKDLNISLNALEDQDLDA [E12I]	3.69
FNYSVGFKDLNASLNALEDQDLDA [E12A]	3.74
FNYSVGFKDLNKSLNALEDQDLDA [E12K]	4.29
FNYSVGFKDLNYSLNALEDQDLDA [E12Y]	3.12
FNYSVGFKDLNNSLNALEDQDLDA [E12N]	4.37
FNYSVGFKDLNRSLNALEDQDLDA [E12R]	3.92
FNYSVGFKDLNMSLNALEDQDLDA [E12M]	3.87
FNYSVGFKDLNLSLNALEDQDLDA [E12L]	3.23
FNYSVGFKDLNVSLNALEDQDLDA [E12V]	3.96
FNYSVGFKDLNCSLNALEDQDLDA [E12C]	2.82

Variant	protein stability index
FNYSVGFKDLNSSLNALEDQDLDA [E12S]	4.17
FNYSVGFKDLNEVLNALEDQDLDA [S13V]	3.67
FNYSVGFKDLNELLNALEDQDLDA [S13L]	2.83
FNYSVGFKDLNEILNALEDQDLDA [S13I]	2.88
FNYSVGFKDLNETLNALEDQDLDA [S13T]	3.72
FNYSVGFKDLNEKLNALEDQDLDA [S13K]	3.8
FNYSVGFKDLNEWLNALEDQDLDA [S13W]	2.85
FNYSVGFKDLNERLNALEDQDLDA [S13R]	4.15
FNYSVGFKDLNEFLNALEDQDLDA [S13F]	3.34
FNYSVGFKDLNENLNALEDQDLDA [S13N]	4.17
FNYSVGFKDLNEELNALEDQDLDA [S13E]	3.95
FNYSVGFKDLNEQLNALEDQDLDA [S13Q]	4.51
FNYSVGFKDLNEPLNALEDQDLDA [S13P]	4.41
FNYSVGFKDLNEMLNALEDQDLDA [S13M]	3.88
FNYSVGFKDLNECLNALEDQDLDA [S13C]	4.25
FNYSVGFKDLNEGLNALEDQDLDA [S13G]	4.58
FNYSVGFKDLNEYLNALEDQDLDA [S13Y]	3.54
FNYSVGFKDLNEDLNALEDQDLDA [S13D]	4.31
FNYSVGFKDLNEHLNALEDQDLDA [S13H]	4.51
FNYSVGFKDLNEALNALEDQDLDA [S13A]	4.56
